Data taken from EP4585616A1, “ANTIBODY CAPABLE OF SPECIFICALLY BINDING TO ROR1, […] THEREOF, AND PREPARATION METHOD THEREFOR AND USE THEREOF” (Hefei Institutes of Physical Science, Chinese Academy of …, priority 2022, dated 2024).

Columns and labels:
[1] = target: T1, human ROR1 on the surface of tumor cells (human, UniProt Q01973 30-937); assay: FACS, MDA-MB-231 cells
T1 construct: whole, on cells; also called ROR1 on the cell surface; tumor cell ROR1

[2] = target: T2, Extracellular domain of human ROR1 protein (ROR1-ECD) (human, UniProt Q01973 30-403); assay: ELISA, plate-coated ROR1-ECD
T2 construct: Expressed in HEK293T cells; also called human ROR1-ECD; purified human ROR1 protein extracellular segment
T2 sequence (Q01973 other isoform, or with tags, fused parts or gaps): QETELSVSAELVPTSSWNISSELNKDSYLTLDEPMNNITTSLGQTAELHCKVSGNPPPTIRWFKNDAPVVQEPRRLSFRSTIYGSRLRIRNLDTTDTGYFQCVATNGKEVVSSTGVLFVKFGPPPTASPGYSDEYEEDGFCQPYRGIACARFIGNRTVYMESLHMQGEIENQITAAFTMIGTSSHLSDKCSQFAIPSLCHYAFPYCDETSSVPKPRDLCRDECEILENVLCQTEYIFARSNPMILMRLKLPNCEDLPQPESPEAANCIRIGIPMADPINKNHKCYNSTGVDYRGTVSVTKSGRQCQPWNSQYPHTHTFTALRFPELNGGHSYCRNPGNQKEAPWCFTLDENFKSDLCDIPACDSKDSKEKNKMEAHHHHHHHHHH

[3] = target: T2, Extracellular domain of human ROR1 …; assay: ELISA, purified ROR1-ECD
[4] = target: T1, human ROR1 on the surface of tumor cells; assay: cell-based or functional assay
[5] = target: T3, ROR1 extracellular segment with Frizzled domain removed on CHO cells (human, UniProt Q01973 30-472, limits assumed); assay: FACS, CHO-ROR1 (with Frizzled domain removed) cells
T3 construct: Transfected into CHO cells; also called CHO-ROR1 (with Frizzled domain removed)
T3 sequence (Q01973 other isoform, or with tags, fused parts or gaps limits assumed): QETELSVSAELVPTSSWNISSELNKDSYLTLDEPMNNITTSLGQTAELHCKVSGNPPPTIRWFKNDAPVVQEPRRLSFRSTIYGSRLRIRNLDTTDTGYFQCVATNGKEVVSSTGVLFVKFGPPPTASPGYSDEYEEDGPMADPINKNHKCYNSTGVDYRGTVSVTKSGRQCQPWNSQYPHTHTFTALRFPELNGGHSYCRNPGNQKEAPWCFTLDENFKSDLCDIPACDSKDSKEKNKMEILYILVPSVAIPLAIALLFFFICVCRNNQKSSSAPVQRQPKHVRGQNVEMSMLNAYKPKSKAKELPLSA

[6] = target: T1, human ROR1 on the surface of tumor cells; assay: FACS, NCI-H226 cells
[7] = target: T4, ROR1 extracellular segment with Ig-like domain removed on CHO cells (human, UniProt Q01973 30-472, limits assumed); assay: FACS, CHO-ROR1 (with Ig-like domain removed) cells
T4 construct: Transfected into CHO cells; also called CHO-ROR1 (with Ig-like domain removed)
T4 sequence (Q01973 other isoform, or with tags, fused parts or gaps limits assumed): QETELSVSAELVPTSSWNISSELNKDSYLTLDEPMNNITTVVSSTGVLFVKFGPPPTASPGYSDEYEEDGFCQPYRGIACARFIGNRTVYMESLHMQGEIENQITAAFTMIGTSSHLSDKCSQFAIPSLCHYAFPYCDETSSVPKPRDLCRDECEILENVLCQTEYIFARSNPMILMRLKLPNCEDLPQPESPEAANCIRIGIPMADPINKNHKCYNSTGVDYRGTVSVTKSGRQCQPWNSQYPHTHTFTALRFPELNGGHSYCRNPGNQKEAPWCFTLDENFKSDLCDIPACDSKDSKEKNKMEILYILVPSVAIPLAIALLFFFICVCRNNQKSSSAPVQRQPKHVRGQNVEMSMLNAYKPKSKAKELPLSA

[8] = target: T5, ROR1 extracellular segment with Kringle domain removed on CHO cells (human, UniProt Q01973 30-472, limits assumed); assay: FACS, CHO-ROR1 (with Kringle domain removed) cells
T5 construct: Transfected into CHO cells; also called CHO-ROR1 (with Kringle domain removed)
T5 sequence (Q01973 other isoform, or with tags, fused parts or gaps limits assumed): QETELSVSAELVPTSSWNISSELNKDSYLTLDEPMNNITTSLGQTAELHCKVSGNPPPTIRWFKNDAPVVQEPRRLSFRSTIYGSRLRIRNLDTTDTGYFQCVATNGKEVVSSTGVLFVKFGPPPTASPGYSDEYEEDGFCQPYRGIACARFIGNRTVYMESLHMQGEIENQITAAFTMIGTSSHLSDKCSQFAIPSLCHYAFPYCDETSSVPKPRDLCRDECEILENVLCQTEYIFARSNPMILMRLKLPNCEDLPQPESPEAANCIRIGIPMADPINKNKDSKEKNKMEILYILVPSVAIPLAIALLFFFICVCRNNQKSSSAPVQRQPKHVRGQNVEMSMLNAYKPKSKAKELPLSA

[9] = target: T6, ROR1 extracellular segment sequence (including transmembrane) on CHO cells (human, UniProt Q01973 30-472); assay: FACS, CHO-ROR1 (extracellular segment) cells
T6 construct: Cloned into pCDNA3.1 and transfected into CHO cells; also called CHO-ROR1 (extracellular segment); CHO-ROR1
T6 sequence (Q01973 30-472 limits assumed): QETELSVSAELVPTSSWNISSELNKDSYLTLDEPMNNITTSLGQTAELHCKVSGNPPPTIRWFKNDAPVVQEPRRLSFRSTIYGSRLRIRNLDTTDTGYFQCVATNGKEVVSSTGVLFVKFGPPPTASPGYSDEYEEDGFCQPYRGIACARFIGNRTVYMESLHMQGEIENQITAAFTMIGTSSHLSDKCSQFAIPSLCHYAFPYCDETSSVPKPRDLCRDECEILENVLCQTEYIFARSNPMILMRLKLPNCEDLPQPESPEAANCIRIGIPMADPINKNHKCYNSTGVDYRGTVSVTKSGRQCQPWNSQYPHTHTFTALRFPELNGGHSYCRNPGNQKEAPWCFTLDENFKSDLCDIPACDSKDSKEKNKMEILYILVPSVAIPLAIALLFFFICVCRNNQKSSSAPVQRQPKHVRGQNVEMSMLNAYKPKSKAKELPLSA

[10] = target: T6, ROR1 extracellular segment sequence …; assay: FACS, ROR1 transferred onto CHO cell surface (summing up of Example 9)

T1 sequence (Q01973 30-937): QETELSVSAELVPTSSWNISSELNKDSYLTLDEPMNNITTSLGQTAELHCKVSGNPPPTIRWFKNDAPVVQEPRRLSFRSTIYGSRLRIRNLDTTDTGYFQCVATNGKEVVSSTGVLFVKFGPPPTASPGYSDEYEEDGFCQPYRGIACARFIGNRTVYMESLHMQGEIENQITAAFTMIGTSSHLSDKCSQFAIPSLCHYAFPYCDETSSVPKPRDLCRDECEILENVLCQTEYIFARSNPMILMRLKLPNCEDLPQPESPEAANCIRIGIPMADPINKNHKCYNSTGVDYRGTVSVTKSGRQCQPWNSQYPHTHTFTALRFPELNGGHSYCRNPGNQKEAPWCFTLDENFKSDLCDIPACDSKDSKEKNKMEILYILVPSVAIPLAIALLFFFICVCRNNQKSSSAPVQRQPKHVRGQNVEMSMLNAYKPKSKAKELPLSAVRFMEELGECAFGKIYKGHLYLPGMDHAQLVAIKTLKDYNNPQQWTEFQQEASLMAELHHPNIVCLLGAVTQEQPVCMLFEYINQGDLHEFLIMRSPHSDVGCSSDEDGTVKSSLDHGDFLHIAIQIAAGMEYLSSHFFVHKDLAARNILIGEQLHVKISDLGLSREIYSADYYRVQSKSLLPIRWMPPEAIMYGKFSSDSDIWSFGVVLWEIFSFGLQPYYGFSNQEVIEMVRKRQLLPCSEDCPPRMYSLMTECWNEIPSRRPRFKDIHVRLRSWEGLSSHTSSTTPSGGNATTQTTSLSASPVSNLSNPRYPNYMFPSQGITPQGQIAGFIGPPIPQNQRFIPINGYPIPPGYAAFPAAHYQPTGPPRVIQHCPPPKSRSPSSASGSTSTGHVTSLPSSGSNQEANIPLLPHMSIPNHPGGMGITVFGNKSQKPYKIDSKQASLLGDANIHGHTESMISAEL

B1: Hu005-45 (antibody, V domains shown)
VH: EVQLVESGGGLVKPGGSLRLSCAASGFTFNSYAMSWVRQTPEKGLEWVATISDAGSYTYYPDNEKGRFTISRDNAKNSLYLQMNSLRAEDTAIYYCVRGGYYYNLYAMDYWGQGTLVTVSS
VL: DIVLTQSPDSLAVSLGERATINCKASQSVSFPGTSLMHWYQQKPGQQPKLLIYRASNLEAGVPDRFSGSGSRTDFTLTISSLQAEDVAVYYCQQSREYPWTFGGGTKVEIK
notes: Humanized
[1]
  binding result: binds
[2]
  binding result: binds

B2: Hu005-46-MMAE (antibody, human IgG1, DAR about 4.07, V domains shown)
VH: EVQLVESGGGLVKPGGSLRLSCAASGFTFNSYAMSWVRQTPGKRLEWVATISDAGSYTYYPDNEKGRFTISRDNAKNSLYLQMNSLRAEDTAIYYCVRGGYYYNLYAMDYWGQGTLVTVSS
VL: DIVLTQSPDSLAVSLGERATINCKASQSVSFPGTSLMHWYQQKPGQQPKLLIYRASNLEAGVPDRFSGSGSRTDFTLTISSLQAEDVAVYYCQQSREYPWTFGGGTKVEIK
modifications: vcMMAE on cysteines after TCEP reduction, positions not given
notes: Antibody-drug conjugate of Hu005-46 (human IgG1, Kappa) with vcMMAE
[1]
  binding result: binds
[2]
  binding result: binds

B3: mAb004 (antibody, IgG2b, V domains shown)
VH: EVQLVESGGGLVQPKGSLKLSCAASGFTFNTYAMHWVRQAPGKGLEWVARIRSKSSNFATYYADSVRDRFTISRDDSQSMLYLQMNNLKTEDTAMYYCVRGYGPSYFSLDYWGQGTSVTVSS
VL: DVVMTQTPLSLPVSLGDQASISCRSSQSLVHSNGNTYLHWYLQKPGQSPKLLIYKVSNRFSGVPDRFSGSGSGTDFTLKINRVEAEDLGVYFCSQSTHAIYTFGGGTKLEIK
notes: Mouse monoclonal antibody, IgG2b/k
[3]
  EC50: 0.038 nM
[1]
  EC50: 0.15 nM

B4: mAb001c-vcMMAE (antibody, human IgG1, DAR about 3.81, V domains shown)
VH: EVRLQQSGPVLVKPGASVKMSCKASGYTFTDYNLHWVKQSHRQSLEWIGYINPNHDGTSYNQKFQGKATLTVDRSSSTAYMEFRSLTSEDSAVYYCARRVRTGTGLDDWGQGTTLTVSS
VL: DVLMTQSPLSLPVSLGDQASISCRSSHNIVHTNGNTYLEWYLQKPGQSPKLLIYKVSNRFSGVPDRFSGSGSGTYFTLTISRVEAEDLGVYYCFQGSRFPYTFGGGTKLEIK
modifications: vcMMAE on cysteines after TCEP reduction, positions not given
[4]
  in vitro anti-proliferative activity IC50, HCC827 cells (CCK8): < 10 nM
  in vitro anti-proliferative activity IC50, HCC1187 cells (CCK8): < 10 nM
  in vitro anti-proliferative activity IC50, HT-29 cells (CCK8): < 10 nM
  in vitro anti-proliferative activity IC50, MCF-7 cells (CCK8): > 100 nM
  in vitro anti-proliferative activity IC50, MDA-MB-231 cells (CCK8): < 10 nM
  in vitro anti-proliferative activity IC50, NCI-H446 cells (CCK8): < 10 nM
  in vitro anti-proliferative activity IC50, NCI-N87 cells (CCK8): < 10 nM

B5: mAb006 (antibody, IgG2b, V domains shown)
VH: EVQLQQSGPELVKPGASLKMSCKASGYTFPDYNIHWVKQSHGKSLEWIGYINPNNGGTTYNQKFKGKATLTVSKSSSTAYMELRSLTSEDSAVYSCARRGYGSSYAMDYWAQGTSVTVSS
VL: DVLMTQSPLSLPVSLGDQASISCRSSHIIVHTNGNTYLEWYLQKPGQSPKLLIYKVSNRFSGVPDRFSGSGSGTDFTLKISRVEAEDLGVYYCFQGSRVPYTFGGGTKLEIK
notes: as for B3
[3]
  EC50: 0.059 nM
[1]
  EC50: 0.19 nM

B6: mAb001 (antibody, IgG2b, V domains shown)
VH: EVRLQQSGPVLVKPGASVKMSCKASGYTFTDYNLHWVKQSHRQSLEWIGYINPNHDGTSYNQKFQGKATLTVDRSSSTAYMEFRSLTSEDSAVYYCARRVRTGTGLDDWGQGTTLTVSS
VL: DVLMTQSPLSLPVSLGDQASISCRSSHNIVHTNGNTYLEWYLQKPGQSPKLLIYKVSNRFSGVPDRFSGSGSGTYFTLTISRVEAEDLGVYYCFQGSRFPYTFGGGTKLEIK
notes: as for B3
[3]
  EC50: 0.049 nM
[1]
  EC50: 0.073 nM

B7: mAb006c (antibody, V domains shown)
VH: EVQLQQSGPELVKPGASLKMSCKASGYTFPDYNIHWVKQSHGKSLEWIGYINPNNGGTTYNQKFKGKATLTVSKSSSTAYMELRSLTSEDSAVYSCARRGYGSSYAMDYWAQGTSVTVSS
VL: DVLMTQSPLSLPVSLGDQASISCRSSHIIVHTNGNTYLEWYLQKPGQSPKLLIYKVSNRFSGVPDRFSGSGSGTDFTLKISRVEAEDLGVYYCFQGSRVPYTFGGGTKLEIK
notes: Human-mouse chimeric
[5]
  EC50: 1.64 nM
[6]
  EC50: 0.28 nM
[1]
  EC50: 0.4 nM
[7]
  EC50: 0.37 nM
[8]
  EC50: 1.59 nM
[2]
  EC50: 0.009 nM
[9]
  EC50: 0.71 nM
[10]
  EC50: < 2 nM

B8: mAb007 (antibody, IgG2b, V domains shown)
VH: EVQLQQSGPELVKPGASVKMSCKASGYTFTDYNMHWVKQSHGKSLEWIGYINPNNGGTSYNQKFKGKATLTVNKSSSTAYMELRSLTSDDSAVYYCARRGYGSGYAMDYWGQGTSVTVSS
VL: DVLMTQTPLSLPVSLGDQASISCRSSQSIVHTNGNTYLEWYLQNPGQSPKLLIYKVFNRFSGVPDRFSGSGSGTDFTLKISRVEAEDLGVYYCFQGSLFPYTFGGGTKLEIK
notes: as for B3
[3]
  EC50: 0.066 nM
[1]
  EC50: 0.15 nM

B9: mAb009 (antibody, IgG2b, V domains shown)
VH: EVQLQQSGPELVKPGASLKLSCKASGYTFPDYNIHWVKQSHGKSLEWIGYINPNNGNTNYNQKFEGKATLTVSKSSSTAYMELRSLTSDDSAVYSCARRGYGSSYAMDFWGQGTSVTVSS
VL: DVLMTQTPLSLPVSLGNQASISCRSSHIIVHTNGNTYLEWYLQKPGQSPKLLIYKVSNRFSGVPDRFSGSGSGTDFTLKISRVEAEDLGVYYCFQGSRVPYTFGGGTKLEIK
notes: as for B3
[3]
  EC50: 0.062 nM
[1]
  EC50: 0.16 nM

B10: mAb001c_v1 (antibody, IgG1, V domains shown)
VH: EVRLQQSGPVLVKPGASVKMSCKASGYTFTDYNLHWVKQSHRQSLEWIGYINPNHDATSYNQKFQGKATLTVDRSSSTAYMEFRSLTSEDSAVYYCARRVRTGTGLDDWGQGTTLTVSS
VL: DVLMTQSPLSLPVSLGDQASISCRSSHNIVHTNANTYLEWYLQKPGQSPKLLIYKVSNRFSGVPDRFSGSGSGTYFTLTISRVEAEDLGVYYCFQGSRFPYTFGGGTKLEIK
notes: Chimeric mutant in hIgG1,k vector; the entries already hold the site-directed changes; also called human-mouse chimeric antibody mutant of mAb001c; site-directed mutant of mAb001c
[1]
  EC50: 0.073 nM
[2]
  EC50: 0.028 nM

B11: mAb009c (antibody, V domains shown)
VH: EVQLQQSGPELVKPGASLKLSCKASGYTFPDYNIHWVKQSHGKSLEWIGYINPNNGNTNYNQKFEGKATLTVSKSSSTAYMELRSLTSDDSAVYSCARRGYGSSYAMDFWGQGTSVTVSS
VL: DVLMTQTPLSLPVSLGNQASISCRSSHIIVHTNGNTYLEWYLQKPGQSPKLLIYKVSNRFSGVPDRFSGSGSGTDFTLKISRVEAEDLGVYYCFQGSRVPYTFGGGTKLEIK
notes: Human-mouse chimeric
[5]
  EC50: 1.68 nM
[6]
  EC50: 0.25 nM
[1]
  EC50: 0.33 nM
[7]
  EC50: 0.45 nM
[8]
  EC50: 1.62 nM
[2]
  EC50: 0.017 nM
[9]
  EC50: 0.79 nM
[10]
  EC50: < 2 nM

B12: mAb008 (antibody, IgG2b, V domains shown)
VH: EVQLQQSGPELVKPGASVKMSCKASEYTFTDYNMHWVKQSHGKSLEWIGYINPNNGGTTYNQKFKGKATLTVNKSSSTAYMELRSLTSDDSAVYYCARRGYGSGYAMDYWGQGASVTVSS
VL: DVLLTQTPLSLPVSLGDRASISCTSSQSIVHTNGNTYLEWYLQNPGQSPKLLIYKVSNRFSGVPDRFSGSGSGTDFTLKISRVEAEDLGVYYCFQGSLFPYTFGGGTKLEIK
notes: as for B3
[3]
  EC50: 0.053 nM
[1]
  EC50: 0.11 nM

B13: mAb003c (antibody, V domains shown)
VH: EVQLVESGGGLVKPGGSLKLSCAASGFTFSSYAMSWVRQTPEKRLEWVATISDGGSYTYYPDSVKGRFTISRDNAKNNLYLQMSHLKSEDTDMYYCVRGGYYYNLYAMDYWGQGTSVTVSS
VL: DIVLTQSPASLAVSLGQRAIISCKASQSVSFAGTSLMHWYQQKPGQQPKLLIYRASNLEAGVPTRFSGSGSRADFTLNIHPVEEDDAATYYCQQSGEYPWTFGGGTKLEIK
notes: Human-mouse chimeric
[5]
  EC50: 1.78 nM
[6]
  EC50: 0.76 nM
[1]
  EC50: 1.1 nM
[8]
  EC50: 1.74 nM
[2]
  EC50: 0.013 nM
[9]
  EC50: 1.47 nM
[10]
  EC50: < 2 nM

B14: mAb005 (antibody, IgG2b, V domains shown)
VH: EVQLVESGGGLVKPGGSLKLSCAASGFTFNSYAMSWVRQTPEKRLEWVATISDGGSYTYYPDNEKGRFTISRDNAKNNLYLQMSHLKSEDTAIYYCVRGGYYYNLYAMDYWGQGTSVTVSS
VL: DIVLTQSPASLAVSLGQRAIISCKASQSVSFPGTSLMHWYQQKPGQQPKLLIYRASNLEAGVPTRFSGSGSRTDFTLNIHPVEEDDTATYYCQQSREYPWTFGGGTQLEIK
notes: as for B3
[3]
  EC50: 0.043 nM
[1]
  EC50: 0.16 nM

B15: mAb005c_v1 (antibody, IgG1, V domains shown)
VH: EVQLVESGGGLVKPGGSLKLSCAASGFTFNSYAMSWVRQTPEKRLEWVATISDAGSYTYYPDNEKGRFTISRDNAKNNLYLQMSHLKSEDTAIYYCVRGGYYYNLYAMDYWGQGTSVTVSS
VL: DIVLTQSPASLAVSLGQRAIISCKASQSVSFPGTSLMHWYQQKPGQQPKLLIYRASNLEAGVPTRFSGSGSRTDFTLNIHPVEEDDTATYYCQQSREYPWTFGGGTQLEIK
notes: Chimeric mutant in hIgG1,k vector; the VH entry already holds the site-directed change; also called human-mouse chimeric antibody mutant of mAb005c; site-directed mutant of mAb005c
[1]
  EC50: 0.067 nM
[2]
  EC50: 0.046 nM

B16: mAb003 (antibody, IgG2c, V domains shown)
VH: EVQLVESGGGLVKPGGSLKLSCAASGFTFSSYAMSWVRQTPEKRLEWVATISDGGSYTYYPDSVKGRFTISRDNAKNNLYLQMSHLKSEDTDMYYCVRGGYYYNLYAMDYWGQGTSVTVSS
VL: DIVLTQSPASLAVSLGQRAIISCKASQSVSFAGTSLMHWYQQKPGQQPKLLIYRASNLEAGVPTRFSGSGSRADFTLNIHPVEEDDAATYYCQQSGEYPWTFGGGTKLEIK
notes: Mouse monoclonal antibody, IgG2c/k
[3]
  EC50: 0.023 nM
[1]
  EC50: 0.45 nM
